From article PMC12554370, “MdMAPK6-mediated phosphorylation of MdWRKY9 regulates apple fruit ripening through interaction with MdERF5L”
Where a chain is given by its changes, count along the chain named.

What was measured:
MdWRKY9 = MdWRKY9 (Malus domestica, UniProt D9ZJG3 1-520); experiment: EMSA; LightShift Chemiluminescent EMSA kit (Thermo), per manufacturer's protocol; buffer, salt, pH and temperature not stated; settings: protein: recombinant; tags: GST (pGEX-4T-1) or His (pET-32a); label: biotin (hot probe); blunt
MdERF5L [1] = target: T1, MdERF5L (Malus domestica, UniProt A0A498JN73 1-332); experiment: EMSA; cold probe competes; LightShift Chemiluminescent EMSA kit (Thermo), per manufacturer's protocol; buffer, salt, pH and temperature not stated; settings: protein: recombinant; tags: GST (pGEX-4T-1); label: biotin (hot probe); blunt
MdERF5L [2] = target: T1, MdERF5L; experiment: EMSA; mutations disrupted binding; LightShift Chemiluminescent EMSA kit (Thermo), per manufacturer's protocol; buffer, salt, pH and temperature not stated; settings: protein: recombinant; tags: GST (pGEX-4T-1); blunt

T1 sequence (A0A498JN73 entry or part of it): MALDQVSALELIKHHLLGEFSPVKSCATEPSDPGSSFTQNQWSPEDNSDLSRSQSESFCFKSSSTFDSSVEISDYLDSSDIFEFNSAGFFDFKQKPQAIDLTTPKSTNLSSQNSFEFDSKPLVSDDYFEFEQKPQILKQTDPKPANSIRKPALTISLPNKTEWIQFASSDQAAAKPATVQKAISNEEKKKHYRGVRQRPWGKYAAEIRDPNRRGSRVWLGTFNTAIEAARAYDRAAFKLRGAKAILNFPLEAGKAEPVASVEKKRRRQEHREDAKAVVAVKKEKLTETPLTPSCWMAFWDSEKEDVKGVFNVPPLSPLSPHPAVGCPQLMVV
Sequence of MdWRKY9 (D9ZJG3 entry or part of it): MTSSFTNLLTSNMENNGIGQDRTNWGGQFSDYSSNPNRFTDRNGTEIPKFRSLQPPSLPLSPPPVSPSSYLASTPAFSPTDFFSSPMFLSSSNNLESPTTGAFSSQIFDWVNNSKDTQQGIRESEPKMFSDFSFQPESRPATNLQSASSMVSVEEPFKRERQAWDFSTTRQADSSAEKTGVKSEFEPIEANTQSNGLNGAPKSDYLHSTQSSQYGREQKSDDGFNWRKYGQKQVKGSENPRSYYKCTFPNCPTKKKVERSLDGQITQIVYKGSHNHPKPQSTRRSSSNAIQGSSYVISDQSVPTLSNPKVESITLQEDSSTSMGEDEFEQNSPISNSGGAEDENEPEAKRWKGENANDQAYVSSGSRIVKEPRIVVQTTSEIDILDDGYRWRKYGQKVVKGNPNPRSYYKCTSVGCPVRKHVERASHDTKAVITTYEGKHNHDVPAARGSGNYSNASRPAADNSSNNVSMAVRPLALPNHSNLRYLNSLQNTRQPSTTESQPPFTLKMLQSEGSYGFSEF

B1: MdERF5L-W-box probe (dsDNA)
DNA 1: AATTTGTATATCGTTTTCTGGGTCAATGATACGTTTTTTTATATTA
DNA 2: TAATATAAAAAAACGTATCATTGACCCAGAAAACGATATACAAATT
B1: binds (MdWRKY9).

B2: MdACS1-DRE probe (dsDNA)
DNA 1: AAAATAGAGGAGAAAAATGGCCGACAAAATTTGTTGTGGCTACTA
DNA 2: TAGTAGCCACAACAAATTTTGTCGGCCATTTTTCTCCTCTATTTT
B2: binds (MdERF5L [1]).

B3: MdACS1-DRE mutant probe (dsDNA)
DNA 1: B2 DNA 1 with C21T, G23T, C25G
DNA 2: B2 DNA 2 with G21C, C23A, G25A
B3: no binding (MdERF5L [2]).
